Data as given in US12516130B2, “Single-domain antibody for targeting prostate specific membrane antigen (PSMA)” (NATIONAL INSTITUTE FOR BIOTECHNOLOGY IN THE NEGEV LTD., priority 2019, dated 2026).
Changes are numbered by the printed parent chain.

B1: NB7: anti-PSMA camel nanobody (VHH, ~16 kDa) selected by phage display; PDB 6XXN (protein)
VHH: QVQLQESGGGSVQAGGSLRLSCTAPGYTDSNYYMSWFRQAPGKEREWVAGVNTGRGSTSYADSVKGRFTISQDNAKNTMFLQMNSLKPEDTAIYYCAVAACHFCDSLPKTQDEYILWGQGTQVTVSSAAAYPYDVPDYGS
B2: NB7cys: NB7 with an added cysteine in the C-terminus (protein)
VHH (part 1 of 2): B1 VHH
VHH (part 2 of 2): C
modifications: left off: small tags and cut ends
notes: NB7 with an added cysteine in the C-terminus
B3: NB7 K43PrK: NB7 with lysine K43 changed to the non-natural amino acid PrK (protein)
VHH: B1 VHH with K43X
modifications: non-natural residues; left off: small tags and cut ends
notes: NB7 with lysine K43 changed to the non-natural amino acid PrK
B4: NB13: anti-PSMA camel nanobody (VHH, ~16 kDa) selected by phage display (protein)
VHH: QVQLQESGGGSVQTGGSLRLSCAASGYTASFSWIGYFRQAPGKEREGVAVINVGVGSTYYADSVKGRFTISRDNTENTISLEMNSLKPEDTGLYYCAGSLRWSRPPNPISEDAYNYWGQGTQVTVSSAAAYPYDVPDYGS
B5: NB8: anti-PSMA camel nanobody (VHH, ~16 kDa) selected by phage display; PDB 6XXO (protein)
VHH: QVQLQESGGGSVQAGGSLRLSCARSGWPYSTYSMNWFRQAPGKEREAVAGISSTMSGIIFAESKAGQFTISQDNAKNTVYLQMNNLKPEDTAIYYCAARRDYSLSSSSDDFDYWGQGTQVTVSSAAAYPYDVPDYGS
B6: NB37: anti-PSMA camel nanobody (VHH, ~16 kDa) selected by phage display; PDB 6XXP (protein)
VHH: B5 VHH with Q13E

Columns and labels:
PC3-PIP cells [1] = assay: Mitochondrial potential assay (TMRE); format: cell-based; conditions: 24 h, 1.5 μg/ml DOX or equivalent molar amount
Protocol: PC3-PIP cells (2×10^4) were seeded on 96-well plates. […] After 24 h, tetramethylrhodamine ethyl ester (TMRE; Abcam, UK) was added according to the protocol provided by the manufacturer. Fluorescence intensity was measured at an excitation wavelength of 549 nm and an emission wavelength of 575 nm.

PSMA [2] = target: T1, PSMA (Homo sapiens, UniProt Q04609); assay: Small-angle X-ray scattering of PSMA-NB complexes; conditions: for Dmax / Rg: PSMA + NB; for shift of Rg of PSMA-NB complex from the original Rg of PSMA (43 Å) / change of Dmax on binding of PSMA to NB: SAXS; for shift of Rg of PSMA-NB complex from the original Rg of PSMA (43 Å): PSMA 0.5 mg/ml; for change of Dmax on binding of PSMA to NB: PSMA alone 115 Å
T1 construct: purified extracellular domain of PSMA [residues 44-750; purchased from Caltech Protein Expression Center, CA]; purchased Caltech Protein Expression Center, CA
Protocol: The small-angle X-ray scattering (SAXS) of monomeric PSMA was measured in PBS at a final concentration of 0.5-3 mg/ml. For PSMA-NB complex samples, the concentration of PSMA was 0.5 mg/ml and the concentrations of the NBs were 0.1-0.5 mg/ml. Measurements were performed in beamline BM29 at the ESRF. The X-ray wavelength was 1.5 Å and the temperature was 4° C. The detector was Pilatus 1 M and the sample-to-detector distance was set at 2.86 m, with a scattering vector (q) range of 0.0025-0.5 Å^−1. At a scattering angle of 2θ, the magnitude of the scattering vector (q) is defined as: […]
The experimental SAXS data for all samples were linear in the low q, Guinier region. The radii of gyration (Rg) were derived from data in the qRg<1 region by using the Guinier approximation:
The inventors analyzed the small-angle region (0.012<q<0.08 Å^−1) of the scattering profiles using the Guinier approximation embedded in the GNOM method.
The scattering curve reflects structural characteristics in reciprocal space. Scattering profiles were translated into real space by Fourier transformation, resulting in the pairwise-distance distribution function P(r). This function reflects the distances between pairs of scattering points within the macromolecule, allowing the determination of the maximum dimension of the particle (Dmax). To obtain a reliable quantification of Dmax, the inventors incorporated GNOM with in-house scripts. The Rg of monomeric PSMA extracted from SAXS data was compared to the calculated Rg from the crystal structure of monomeric PSMA (PDB 3D7D) using CRYSOL. The overall three-dimensional ab initio models of PSMA and PSMA-NB complexes were restored from the experimental scattering data by using Dammin. Shape reconstruction was performed to represent the molecular shape as a closely packed sphere assembly within a search volume defined by Dmax, chosen with a χ^2<1.3 for all models. For all samples, 20 low-resolution models were averaged using the program DAMAVER to yield an averaged model representing the general structural features of each reconstruction.

[3] = system: PC3-PIP (PSMA+) and PC3-flu (PSMA−) xenografts; assay: In vivo optical (NIR) imaging of labeled NBs; set-up: species or system athymic nude mice; conditions: for duration until the fluorescent signal was no longer detected (late time point): whole-body NIR imaging, 1.5 nmole AlexaFluor680-labeled NB i.v.
Protocol: Tumor xenografts were generated in 6-week old male athymic nude mice by using PC3-PIP and PC3-flu cells. Each mouse was simultaneously injected subcutaneously with 2×10^6 cells of each line, diluted 1:1 with Matrigel (Corning, USA); PC3-PIP cells were injected above the right upper flank, while PC3-flu cells were injected above the left one. Nine days after the inoculation, as the tumors reached a size of ˜200 mm^3, these mice were injected intravenously with 1.5 nmole of either NB7, NB8, NB13, or NB37 (four mice per group) labeled with NHS-ester AlexaFluor680 (Invitrogen). In addition to these 16 mice, four tumor-bearing mice were not injected with any NB, while four other mice were injected with the labeled NBs (a different NB per mouse) but were not implanted with a xenograft. The mice were anesthetized with isoflurane at different time points (see below) and the distribution of the fluorescently labeled protein was measured in near infra-red (NIR) optical imaging using the IVIS Lumina system (PerkinElmer, USA). Exposure time was set at 1 s. The fluorescence signal was measured at the time of injection, and 0.5, 1, 2, 3, 6, 10, 18, 24, 28, 32, 36, 48 and 56 h after injection. Images of the mice were acquired 3 and 6 h after injection, and again when a signal was no longer detected (24-56 h after injection). At each time point, one mouse from each group of tumor-bearing mice that had been injected with a NB was euthanized for an ex vivo quantification of the fluorescent signal in its organs, using the Living Image software.

PSMA [4] = target: T1, PSMA; assay: Surface plasmon resonance binding assay; conditions: for Koff / Kon: SPR, immobilized NB, 1:1 Langmuir model, 25° C., means ± SD; for binding constant (Ka) to PSMA: stated per SEQ ID NO in the description
Protocol: The affinity of each NB to PSMA was determined by using surface plasmon resonance (SPR) spectroscopy on a ProteOn XPR36 chip (Bio-Rad, CA). The chip was activated by using sulfo-NHS (0.1 M N-hydroxysuccinimide) and EDC [0.4 M 1-ethyl-3-(3-dimethylaminopropyl)-carbodiimide]. Each NB (0.2 μg) was immobilized in a 10 mM sodium acetate buffer, pH 5.0, at a flow rate of 30 μl/min. Bovine serum albumin (BSA) (3 μg) was immobilized on the chip as a negative control. Unbound esters were deactivated with 1 M ethanolamine HCl at pH 8.5. The soluble PSMA was then applied over the chip at concentrations of 2.94, 5.88, 11.75, 23.50, or 47.00 nM (for NBs 8, 13, and 37) or of 25, 50, 100, 1,600, or 3,200 pM (for NB7), at a flow rate of 25 μl/min. During this time, the association between the NBs and PSMA was measured. The dissociation was measured while flowing 50 μl/min PBST (namely, a phosphate-buffered saline with 0.005% Tween). For each protein complex, a binding sensogram was generated by subtracting the values of the PSMA response to BSA from those of the PSMA response to the NBs. The dissociation constant (KD) was determined from the Langmuir 1:1 kinetic model. The temperature throughout the binding measurements was set at 25° C.

PC3-PIP cells [5] = assay: Time-dependent quantification of NB internalization; format: cell-based; conditions: 100 nM, imaged every 40 min for 16 h
Protocol: NB7, NB8, NB13, and NB37, each labeled with Dylight488, were individually incubated for 1 h (at 100 nM) in a 96-well plate. On each well, 1.5×10^4 PC3-PIP cells were seeded and grown overnight, and then the wells were imaged every 40 min for a total of 16 h, using the Operetta CLS high-content analysis system (Perkin Elmer). Each well was imaged as 24 fields, which were later combined to create an image of the entire well. Using the Operetta analysis software, the cells were qualitatively classified into two groups according to the distribution of NBs: (i) mostly on the cell membrane, and (ii) mostly inside the cytoplasm. The number of cells in each group was quantified at each time point and the ratio between the numbers of cells in each group was calculated.

PC3-PIP cells [6] = assay: Cell viability assay (propidium iodide, FACS); format: cell-based; conditions: 24 h, 1.5 μg/ml DOX or equivalent molar amount
Protocol: PC3-PIP cells were grown and treated as described in the cell quantification assay section, above. The cells were harvested, incubated with 0.5 μg propidium iodide (PI; Biolegend), and their fluorescence intensity was measured in a BD C6 flow cytometer.

PC3-PIP (PSMA+) cells = assay: FACS cell binding assay, PC3-PIP cells; format: cell-based; conditions: effect of K43PrK mutation
Protocol: Once the cells reached 70% confluence, 10^5 cells were added to each well of 96-well U-shaped bottom plates (Greiner Bio-One, Austria), centrifuged at 150 g for 5 min, and washed with PBSA (namely, PBS+1 g/1 BSA). NBs were added to the cells in concentrations of 0.1, 0.5, 2, 5, 10, 20, 50, 100, 500, or 1000 nM. The cells were incubated with the NBs for 2 h, followed by three PBSA washing steps. An anti-His antibody conjugated to fluorescein isothiocyanate (FITC) (Invitrogen) was then added at a dilution of 1:100, incubated with the cells for 1 h, and washed three times with PBSA. The cells were kept on ice throughout the experiment. The fluorescence of each sample was measured using an Accuri C6 flow cytometry analyzer (BD Biosciences, CA). Each experimental condition was repeated three times. To generate a titration curve, the value for each sample was determined using the equation:
[formula] where Fsample is the mean fluorescence value, Flow is the fluorescence at the lowest concentration for PC3-PIP cells, and Fhigh is the fluorescence at the highest concentration for PC3-PIP cells. A binding curve was generated using GraphPad Prism 5.0.

T1 sequence (Q04609 44-750): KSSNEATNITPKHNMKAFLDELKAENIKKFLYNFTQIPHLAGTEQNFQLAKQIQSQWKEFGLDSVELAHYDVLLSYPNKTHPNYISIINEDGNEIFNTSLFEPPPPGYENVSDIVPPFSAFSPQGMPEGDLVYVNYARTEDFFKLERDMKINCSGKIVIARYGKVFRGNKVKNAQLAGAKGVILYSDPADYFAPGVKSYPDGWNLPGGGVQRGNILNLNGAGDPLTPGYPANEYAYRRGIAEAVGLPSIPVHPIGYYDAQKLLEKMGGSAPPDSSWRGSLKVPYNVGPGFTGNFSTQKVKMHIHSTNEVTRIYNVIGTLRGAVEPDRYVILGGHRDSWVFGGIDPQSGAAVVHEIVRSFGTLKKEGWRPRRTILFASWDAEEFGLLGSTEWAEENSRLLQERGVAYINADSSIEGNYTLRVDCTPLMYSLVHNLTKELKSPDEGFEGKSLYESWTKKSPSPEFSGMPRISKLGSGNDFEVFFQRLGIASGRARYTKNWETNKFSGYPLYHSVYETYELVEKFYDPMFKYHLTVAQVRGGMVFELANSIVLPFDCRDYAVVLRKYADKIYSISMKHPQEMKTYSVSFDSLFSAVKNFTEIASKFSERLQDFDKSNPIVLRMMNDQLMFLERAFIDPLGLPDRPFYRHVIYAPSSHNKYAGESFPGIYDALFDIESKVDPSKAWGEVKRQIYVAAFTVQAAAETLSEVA

| Molecule | mitochondrial membrane potential (TMRE signal) (PC3-PIP cells [1]) | Dmax (PSMA [2]; method GNOM) | Rg (PSMA [2]; method GNOM) | Rg (PSMA [2]; method Guinier) | shift of Rg of PSMA-NB complex from the original Rg of PSMA (43 Å) (PSMA [2]) | change of Dmax on binding of PSMA to NB (PSMA [2]) | duration until the fluorescent signal was no longer detected (late time point) [3] | Koff (PSMA [4]) | Kon (PSMA [4]) | binding constant (Ka) to PSMA (PSMA [4]) | internalization into PSMA-expressing cells (cytoplasm/membrane ratio over time) (PC3-PIP cells [5]) | PI signal (late apoptosis and necrosis) (PC3-PIP cells [6]) | binding to PC3-PIP cells versus NB7, FACS (PC3-PIP (PSMA+) cells) | signal intensity in the PC3-PIP tumor ([3]; ex vivo, after 3 h) | signal intensity in the PC3-flu tumor ([3]; ex vivo, after 3 h) | signal intensity in the kidneys ([3]; ex vivo, after 3 h) |
| --- | --- | --- | --- | --- | --- | --- | --- | --- | --- | --- | --- | --- | --- | --- | --- | --- |
| Carbonyl cyanide 4-(trifluorornethoxy) phenythydrazone [FCCP] | significantly reduced the mitochondrial membrane potential |  |  |  |  |  |  |  |  |  |  |  |  |  |  |  |
| B1 |  | 120 Å | 42.4 Å | 48.2 Å | higher Rg | increased Dmax | > 56 h | 3.9e-05 ± 2.8e-07 s⁻¹ | 710000 ± 450 M⁻¹ s⁻¹ | about 7.1×10^5 M^−1 s^−1 | much faster |  |  |  |  |  |
| B2 |  |  |  |  |  |  |  |  |  |  |  | did not change the PI signal |  |  |  |  |
| B3 |  |  |  |  |  |  |  |  |  |  |  |  | no significant change in binding |  |  |  |
| B4 |  | 120 Å | 40.5 Å | 43.8 Å | lower Rg | increased Dmax | 32 h | 2.2e-05 ± 9.9e-07 s⁻¹ | 36000 ± 89 M⁻¹ s⁻¹ | about 3.6×10^4 M^−1 s^−1 | much faster |  |  |  |  |  |
| B5 |  | 100 Å | 39.4 Å | 40.5 Å | lower Rg | decreased it | 32 h | 0.00012 ± 5.3e-07 s⁻¹ | 20000 ± 42 M⁻¹ s⁻¹ | about 2×10^4 M^−1 s^−1 |  |  |  | 171,000 counts/cm^2/s | 21,300 counts/cm^2/s | 94,700 counts/cm^2/s |
| B6 |  | 110 Å | 38.6 Å | 40.4 Å | lower Rg | decreased it | 24 h | 7.5e-05 ± 6.6e-07 s⁻¹ | 22000 ± 53 M⁻¹ s⁻¹ | about 2.2×10^4 M^−1 s^−1 |  |  |  |  |  |  |
